# According to US11110115B2, “Nucleic acid molecule with anti-inflammatory and anti-coagulant and organ-protective properties” (APTAHEM AB, priority 2017, dated 2021):
# “Also recorded” adds a separate entry of the source.
# B1: SEQ ID NO:2: nucleic acid sequence of SEQ ID NO:1 in which each C and U is fluorinated to increase stability in plasma (nucleic acid)
# chain: GGGAAUUCGAGCUCGGUACCAACAAUACGACUACACCAUCAAAAGUAUUAUCUUGCAUCGAAGGUUGGCACGUAGCAAGCUCUGCAGUCG
# modifications: fluorinated C and U; (6)..(7) uracil is fluorinated; (8)..(8) cytosine is fluorinated; (12)..(12) cytosine is fluorinated; (13)..(13) uracil is fluorinated; (14)..(14) cytosine is fluorinated; (17)..(17) uracil is fluorinated; (19)..(20) cytosine is fluorinated; (23)..(23) cytosine is fluorinated; (26)..(26) uracil is fluorinated; (28)..(28) cytosine is fluorinated; (31)..(31) cytosine is fluorinated; (32)
# Key:
# [1] = Comparable ex vivo APTT study, human
# [2] = Arteriovenous shunt model, thrombus weight; assay type: in vivo, Sprague-Dawley male rats; details: SEQ ID NO:2 33.3 mg/kg i.v. 5 min prior; Rivaroxaban 10 mg/kg p.o. 90 min prior; 15 min extracorporeal circulation
# Experimental: This study was conducted at Shanghai WuXi AppTec Co., Ltd., and in accordance with WuXi IACUC standard animal procedures along with the IACUC guidelines that are in compliance with the Animal Welfare Act, the Guide for the Care and Use of Laboratory Animals, and the Office of Laboratory Animal Welfare (OLAW). Sprague-Dawley male rats with body weight ranging between 150-200 g (Vital River; Bejing, P.R. China) were fed ad libitum a rodent diet. Animals had free access to autoclaved and acidified drinking water. Animals were housed under standard laboratory conditions, air conditioned and filtered with adequate fresh air supply. Animals were kept in a climate controlled environment. Rivaroxaban (10 mg/kg) has been dissolved in water and stored at 4° C. 20 mg SEQ ID NO:2 (Biospring) was dissolved in 3 ml Saline, vortexed for 5 min., sonicated with a water bath ultrasonic for 1 minute to achieve 6.66 mg/ml SEQ ID NO:2. The animals were assigned to 3 dosing groups according to the body weight (see table 2). […] Extracorporeal circulation was maintained for 15 min, the thrombus weight formed on the thread was calculated by subtracting the average weight of the rough nylon thread. Significance of difference between control and treated groups was analyzed by performing analysis of variance (ANOVA) by EXCEL office software.
# [3] = Expanded toxicology panel of serum in LPS-induced shock; assay type: in vivo, C57BL/6 mice; details: blood at Hour 28
# Experimental: In this study, female C57BL/6 mice of 10-12 weeks old (Taconic Biosciences) were used. Animals had free access to autoclaved and acidified drinking water. Animals were housed under standard laboratory conditions, air conditioned and filtered with adequate fresh air supply. Animals were kept in a climate-controlled environment. Lipopolysaccharide (LPS) from E. coli (O111:B4) was diluted in PBS. SEQ ID NO:2 was stored in powder form at 4° C. until use. Powder was added to saline and vortexed into solution to prepare SEQ ID NO:2 stock solution. […] For all other groups, LPS was injected intraperitoneally at 10 mg/kg. Mice were intravenously injected 15 minutes and 60 minutes after LPS administration with SEQ ID NO:2 at concentrations of 10, 25, 50 and 100 mg/kg. […] Blood collected at Hour 28 was analyzed for expanded toxicology panel performed by IDEXX Laboratories, Inc. (N. Grafton, Mass.). We attempted to collect enough blood to run each analysis 5 times for each group. The extended toxicology analysis measured concentrations of AST, ALT, creatine kinase, albumin, total protein, BUN, cholesterol, glucose, phosphorus, triglycerides, HDL cholesterol, bile acid, LDL cholesterol, total bilirubin, GGT, bilirubin conjugated, and creatinine. Here, results are shown for AST, ALT, creatine kinase, albumin, total protein, BUN, cholesterol, phosphorus, triglycerides, cholesterol, and creatinine.
# [4] = Fibrinogen and D-dimer analysis of plasma in LPS-induced shock; assay type: in vivo, C57BL/6 mice; details: blood at Hour 28
# Experimental: In this study, female C57BL/6 mice of 10-12 weeks old (Taconic Biosciences) were used. Animals had free access to autoclaved and acidified drinking water. Animals were housed under standard laboratory conditions, air conditioned and filtered with adequate fresh air supply. Animals were kept in a climate-controlled environment. Lipopolysaccharide (LPS) from E. coli (O111:B4) was diluted in PBS. SEQ ID NO:2 was stored in powder form at 4° C. until use. Powder was added to saline and vortexed into solution to prepare SEQ ID NO:2 stock solution. […] For all other groups, LPS was injected intraperitoneally at 10 mg/kg. Mice were intravenously injected 15 minutes and 60 minutes after LPS administration with SEQ ID NO:2 at concentrations of 10, 25, 50 and 100 mg/kg. Except group 7, which was intravenously injected once at 15 minutes and once at 120 minutes after LPS administration. Blood collected at Hour 28 was analysed for fibrinogen and D-dimer analysis from citrated plasma performed by IDEXX Laboratories, Inc. (N. Grafton, Mass.). Hook Laboratories attempted to collect enough blood to run each analysis 5 times for each group, but in one case (citrated plasma for D-dimer, for Group 4) we were able to collect only enough blood to run the analysis 4 times.
# [5] = 50 mg/kg at 15 and 60 min after LPS
# [6] = 50 mg/kg at 60 and 120 min after LPS
# [7] = groups treated i.v. with SEQ ID NO:2 after LPS
# [8] = overall, groups treated i.v. with SEQ ID NO:2
molecule,measurement,setting,value
B1,positive effect on APTT,[1],confirmed
same,"thrombus weight, less than vehicle group",[2],48.1%
same,Cholesterol in serum,[3]; 25 mg/kg at 15 and 60 min after LPS,significant improvements
same,Cholesterol in serum,[3]; [5],significant improvements
same,Creatinine in serum,[3]; [5],significant improvements
same,Creatinine in serum,[3]; [6],significant improvements
same,Triglycerides in serum,[3]; [6],significant improvements
same,serum concentration of ALT compared to vehicle treated group,[3]; [7],did not reach statistical significance
same,serum concentration of AST compared to vehicle treated group,[3]; [7],improvements; also recorded: significantly improved
same,serum concentration of BUN compared to vehicle treated group,[3]; [7],improvements; also recorded: significantly improved
same,serum concentration of creatine kinase compared to vehicle treated group,[3]; [7],did not reach statistical significance
same,serum concentration of phosphorus compared to vehicle treated group,[3]; [7],improvements; also recorded: significantly improved
same,serum concentration of cholesterol compared to vehicle treated group,[3]; [8],significantly improved
same,serum concentration of creatinine compared to vehicle treated group,[3]; [8],significantly improved
same,serum concentration of triglycerides compared to vehicle treated group,[3]; [8],significantly improved
same,Plasma D-dimer concentrations compared to vehicle treated group,[4]; 50 mg/kg at 60 and 120 minutes after LPS,significantly lower
same,Plasma D-dimer concentrations compared to vehicle treated group,"[4]; 50 mg/kg at 60 and 120 minutes after LPS, listed as Apta-1",greatest reductions
same,Plasma D-dimer concentrations compared to vehicle treated group,[4]; 100 mg/kg at 15 and 60 min after LPS,significantly lower
same,"D-dimer in plasma, dose dependence","[4]; 10, 25, 50, 100 mg/kg i.v. after LPS",reduced D-dimer in a dose dependent manner
same,fibrinogen concentrations in plasma compared to vehicle treated mice,"[4]; SEQ ID NO:2 treated mice (10, 25, 50, 100 mg/kg i.v.)",no significant differences
